Experimental data published in publication PMC7243947, “AcDCXR Is a Cowpea Aphid Effector With Putative Roles in Altering Host Immunity and Physiology” (Frontiers in Plant Science, 2020).

Legend:
purified protein [1] = substrate: CC(=O)C=O; assay: purified protein; assay type: biochemical, Aphis craccivora; details: 200 μM NADPH (methods; figure legend prints 200 mM), sodium phosphate pH 6.5, methylglyoxal varied
purified protein [2] = substrate: NC(=O)c1ccc[n+]([C@@H]2O[C@H](COP(=O)(O)OP(=O)(O)OC[C@H]3O[C@@H](n4cnc5c(N)ncnc54)[C@H](OP(=O)(O)O)[C@@H]3O)[C@@H](O)[C@H]2O)c1; assay: purified protein; assay type: biochemical, Aphis craccivora; details: 200 mM xylitol fixed, NADP+ varied, 100 mM glycine pH 9.5, 3 mM MgCl2, paper speaks of it as constant of xylitol oxidation, varied: cofactor

B1: AcDCXR (Aphis craccivora) (protein)
chain: MEEFFVGKKFIVTGANAGIGETITKRLVQLGAHVFAVGRDPKKLPPAGPNLTPVCADVGDWDSYDIIKKLGPVHGLVNNAGVAFIESFFDMTQEGWDKTLNINARGIVRISQAVAQNMKDAGIKGSIVNVSSTISERAIPDHTSYCASKGAVNQVTRVMSIELGKLGIRTNNVNPTVVMTKMGAKAWSDPEKSNPILSRIPLGRFAECDDVANVTLFLLSDYSTYVNGVSIPVDGGFLAS
notes: coding region without predicted signal peptide (first 23 of at least 263 residues); pDEST17 N-terminal 6xHis tag, no cleavage told; E. coli ArcticExpress
Km (purified protein [1]): 1300 µM
kcat (purified protein [1]): 0.23 s⁻¹
Km (purified protein [2]): 560 µM
kcat (purified protein [2]): 1.85 s⁻¹
